Test results as given in patent publication US20240141039A1 (AGENUS, published 2024).
Where two headings read alike, the source gives them in different places.

Experiments:
[1] = target: T1, wild type full-length cynomolgus monkey CD96 isoform 2 expressed on CHO cells (cynomolgus monkey, UniProt A0A2K5TWV6 22-569); assay: flow cytometry on CHO cells expressing cynomolgus CD96 isoform 2, PE anti-human IgG Fc detection
T1 construct: whole, on cells; also called cynomolgus CD96-CHO cells; cynomolgus CD96-CHO (isoform 2)
T1 sequence: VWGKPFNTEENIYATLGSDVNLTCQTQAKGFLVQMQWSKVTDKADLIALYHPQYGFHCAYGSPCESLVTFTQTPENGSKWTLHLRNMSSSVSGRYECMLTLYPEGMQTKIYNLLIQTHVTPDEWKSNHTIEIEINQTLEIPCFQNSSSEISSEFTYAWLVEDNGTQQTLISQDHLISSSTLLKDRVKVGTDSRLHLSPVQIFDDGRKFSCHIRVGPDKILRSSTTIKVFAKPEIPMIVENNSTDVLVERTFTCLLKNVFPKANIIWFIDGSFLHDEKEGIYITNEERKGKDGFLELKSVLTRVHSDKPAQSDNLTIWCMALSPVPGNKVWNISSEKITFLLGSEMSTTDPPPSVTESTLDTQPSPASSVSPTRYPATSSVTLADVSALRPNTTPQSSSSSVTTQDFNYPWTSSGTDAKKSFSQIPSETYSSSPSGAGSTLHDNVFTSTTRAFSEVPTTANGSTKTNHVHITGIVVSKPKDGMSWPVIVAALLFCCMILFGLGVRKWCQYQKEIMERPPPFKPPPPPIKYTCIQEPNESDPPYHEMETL

[2] = target: T2, full-length ECD of human TIGIT (His-tagged) (human); assay: SPR Biacore T200, Protein A capture, 1:1 model, experiment #2
T2 construct: also called His-tagged human TIGIT; human TIGIT extracellular domain
T2 chain: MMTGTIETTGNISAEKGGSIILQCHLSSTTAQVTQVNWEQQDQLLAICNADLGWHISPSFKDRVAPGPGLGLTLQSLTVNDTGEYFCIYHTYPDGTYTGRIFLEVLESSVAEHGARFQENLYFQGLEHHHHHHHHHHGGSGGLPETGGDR
Method: (§1) Briefly, surface plasmon resonance experiments were performed using a Biacore T200 instrument, and the association rate (kₐ), dissociation rate (kd), and dissociation constant (KD) were calculated from each experiment using a 1:1 binding model with Biacore T200 Evaluation Software.
(§2) Multispecific molecules were captured using a 30-sec injection at a flow rate of 10 μl/min to reach about 1000 resonance units (RUs). […] The sensor chip was regenerated between cycles with two 30-sec injections of 10 mM glycine, pH 1.5. Sensorgrams were evaluated and fit to a simple Langmuir 1:1 interaction model using the global data analysis option of BIAevaluation 3.0 software. Data quality was verified by visually inspecting deviations and curve fitting, and by evaluating the parameters of Rₘₐₓ, Chi2, and Tc.

[3] = target: T3, full-length ECD of cynomolgus monkey TIGIT (His-tagged) (cynomolgus monkey); assay: as above
T3 construct: also called His-tagged cynomolgus monkey TIGIT; cyno TIGIT extracellular domain
Method: as §1
as §2, with “Antibodies” for “Multispecific molecules”, “500” for “1000”

[4] = target: T2, full-length ECD of human TIGIT …; assay: as above
Method: as §1
as §2, with “Antibodies” for “Multispecific molecules”, “500” for “1000”

[5] = target: T4, wild type full-length cynomolgus monkey TIGIT expressed on CHO cells (cynomolgus monkey, UniProt A0A7N9I9V4 89-312); assay: flow cytometry, blocking of CD155-Fc-PE binding to cynomolgus TIGIT CHO cells, geomean of 3 experiments
T4 construct: whole, on cells; also called cynomolgus TIGIT-CHO cells
T4 sequence (A0A7N9I9V4 entry or part of it): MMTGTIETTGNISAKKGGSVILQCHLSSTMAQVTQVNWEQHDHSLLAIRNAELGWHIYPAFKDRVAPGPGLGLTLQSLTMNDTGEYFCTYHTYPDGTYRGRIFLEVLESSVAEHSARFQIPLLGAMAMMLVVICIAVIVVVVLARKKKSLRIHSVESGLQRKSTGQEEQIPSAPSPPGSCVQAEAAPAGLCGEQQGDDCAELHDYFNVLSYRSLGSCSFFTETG
Method: A 4× concentrated intermediate stock of each multispecific molecule was prepared in a microplate. Antibodies were serially diluted 1-to-4 in FACS buffer. […] Lastly, 25 μL of cynomolgus TIGIT-CHO cells, prepared as described above, were added to each well. After a 30-minute incubation on ice, the cells were washed twice with cold FACS Buffer, and the cells were analyzed by flow cytometry (BD LSR Fortessa Flow Cytometer). The data were analyzed using the FlowJo software by sequentially gating on the FSC-A vs. SSC-A and SSC-H vs. SSC-A. Mean fluorescence intensity (MFI) values for PE were calculated, and the data were plotted by GraphPad Prism software and analyzed as described above.

B1: anti-TIGIT×CD96 multispecific molecule BA123 (bispecific antibody, human IgG1, kappa, lambda)
heavy 1: QVQLVQSGAEVKKPGASVKVSCKASGYTFTSYGISWVRQAPGQGLEWMGWISAYNANTNYAQKLQGRVTMTTDTSTSTAYMELRSLRSDDTAVYYCARSAGVLGGMDVWGRGTLVTVSSASTKGPSVFPLAPSSKSTSGGTAALGCLVKDYFPEPVTVSWNSGALTSGVHTFPAVLQSSGLYSLSSVVTVPSSSLGTQTYICNVNHKPSNTKVDKRVEPKSCDKTHTCPPCPAPELLGGPDVFLFPPKPKDTLMISRTPEVTCVVVDVSHEDPEVKFNWYVDGVEVHNAKTKPREEQYNSTYRVVSVLTVLHQDWLNGKEYKCKVSNKALPAPIEKTISKAKGQPREPQVYTLPPSREEMTKNQVSLSCAVKGFYPSDIAVEWESNGQPENNYKTTPPVLDSDGSFFLVSKLTVDKSRWQQGNVFSCSVMHEALHNHYTQKSLSLSPG
light 1: not shown
heavy 2: EVQLVQSGAEVKKPGSSVKVSCKASGYTFASYGISWVRQAPGQGLEWMGGITPFFNRVDVAEKFQGRVTITADKSTSTAYIELSSLRSEDTAVYYCARDLRRGGVGDAFDIWGRGTLVTVSSASTKGPSVFPLAPSSKSTSGGTAALGCLVKDYFPEPVTVSWNSGALTSGVHTFPAVLQSSGLYSLSSVVTVPSSSLGTQTYICNVNHKPSNTKVDKRVEPKSCDKTHTCPPCPAPELLGGPDVFLFPPKPKDTLMISRTPEVTCVVVDVSHEDPEVKFNWYVDGVEVHNAKTKPREEQYNSTYRVVSVLTVLHQDWLNGKEYKCKVSNKALPLPEEKTISKAKGQPREPQVYTLPPSREEMTKNQVSLWCLVKGFYPSDIAVEWESNGQPENNYKTTPPVLDSDGSFFLYSKLTVDKSRWQQGNVFSCSVMHEALHNHYTQKSLSLSPG
light 2: QSALTQPRSVSGSPGQSVTISCTGTSPDVGSHAYRSWYQQHPGKAPKLMIYEVSYRPSGVSNRFSGSKSGNTASLTISGLQAEDEADYYCSSYPPSSATVFGAGTKLTVLGQPKAAPSVTLFPPSSEELQANKATLVCLISDFYPGAVTVAWKADSSPVKAGVETTTPSKQSNNKYAASSYLSLTPEQWKSHRSYSCQVTHEGSTVEKTVAPTEC
notes: copies: 1 + 1 + 1 + 1
- EC50 (read off the curve) [1]: ~1 µg/mL

B2: anti-TIGIT×CD96 multispecific molecule BA127 (bispecific antibody, human IgG1, kappa, lambda)
heavy 1: QVQLVQSGAEVKKPGASVKVSCKASGYTFTTYALHWVRQAPGQRLEWMGWINTGSGDTKYSQKFQGRVTITRDTSASTAYMELSSLRSEDTAVYYCARSLGVYYGMDVWGQGTLVTVSSASTKGPSVFPLAPSSKSTSGGTAALGCLVKDYFPEPVTVSWNSGALTSGVHTFPAVLQSSGLYSLSSVVTVPSSSLGTQTYICNVNHKPSNTKVDKRVEPKSCDKTHTCPPCPAPELLGGPDVFLFPPKPKDTLMISRTPEVTCVVVDVSHEDPEVKFNWYVDGVEVHNAKTKPREEQYNSTYRVVSVLTVLHQDWLNGKEYKCKVSNKALPAPIEKTISKAKGQPREPQVYTLPPSREEMTKNQVSLSCAVKGFYPSDIAVEWESNGQPENNYKTTPPVLDSDGSFFLVSKLTVDKSRWQQGNVFSCSVMHEALHNHYTQKSLSLSPG
light 1: not shown
heavy 2: B1 heavy 2
light 2: B1 light 2
notes: Anti-CD96 arm = BA139, anti-TIGIT arm = BA150; copies: 1 + 1 + 1 + 1
- Kd [2]: 0.611 nM
- koff [2]: 0.000385 s⁻¹
- kon [2]: 631000 M⁻¹ s⁻¹

B3: anti-TIGIT monospecific antibody BA148 (antibody, human IgG1, lambda)
heavy: EVQLVQSGAEVKKPGSSVKVSCKASGYTFASYGISWVRQAPGQGLEWMGGITPFFNRVDVAEKFQGRVTITADKSTSTAYIELSSLRSEDTAVYYCARDLRRGGVGDAFDIWGRGTLVTVSSASTKGPSVFPLAPSSKSTSGGTAALGCLVKDYFPEPVTVSWNSGALTSGVHTFPAVLQSSGLYSLSSVVTVPSSSLGTQTYICNVNHKPSNTKVDKRVEPKSCDKTHTCPPCPAPELLGGPDVFLFPPKPKDTLMISRTPEVTCVVVDVSHEDPEVKFNWYVDGVEVHNAKTKPREEQYNSTYRVVSVLTVLHQDWLNGKEYKCKVSNKALPLPEEKTISKAKGQPREPQVYTLPPSREEMTKNQVSLTCLVKGFYPSDIAVEWESNGQPENNYKTTPPVLDSDGSFFLYSKLTVDKSRWQQGNVFSCSVMHEALHNHYTQKSLSLSPGK
light: B1 light 2
notes: IgG1; also called anti-TIGIT IgG1 antibody BA148
- Kd [3]: 4.06 nM
- koff [3]: 0.00126 s⁻¹
- kon [3]: 310000 M⁻¹ s⁻¹
- Kd [4]: 0.548 nM
- koff [4]: 0.000422 s⁻¹
- kon [4]: 770000 M⁻¹ s⁻¹
- IC50 [5]: 0.243 µg/mL
